From US20260167713A1 (UCB, published 2026)

T1: recombinant full-length human beta-catenin (human, UniProt P35222 2-781, biotinylated in the ELISA and SPR assays (sites not given); not biotinylated on the Western blots)
T1 construct: Tags are not described; also called β-catenin; biotinylated beta-catenin
T1 sequence: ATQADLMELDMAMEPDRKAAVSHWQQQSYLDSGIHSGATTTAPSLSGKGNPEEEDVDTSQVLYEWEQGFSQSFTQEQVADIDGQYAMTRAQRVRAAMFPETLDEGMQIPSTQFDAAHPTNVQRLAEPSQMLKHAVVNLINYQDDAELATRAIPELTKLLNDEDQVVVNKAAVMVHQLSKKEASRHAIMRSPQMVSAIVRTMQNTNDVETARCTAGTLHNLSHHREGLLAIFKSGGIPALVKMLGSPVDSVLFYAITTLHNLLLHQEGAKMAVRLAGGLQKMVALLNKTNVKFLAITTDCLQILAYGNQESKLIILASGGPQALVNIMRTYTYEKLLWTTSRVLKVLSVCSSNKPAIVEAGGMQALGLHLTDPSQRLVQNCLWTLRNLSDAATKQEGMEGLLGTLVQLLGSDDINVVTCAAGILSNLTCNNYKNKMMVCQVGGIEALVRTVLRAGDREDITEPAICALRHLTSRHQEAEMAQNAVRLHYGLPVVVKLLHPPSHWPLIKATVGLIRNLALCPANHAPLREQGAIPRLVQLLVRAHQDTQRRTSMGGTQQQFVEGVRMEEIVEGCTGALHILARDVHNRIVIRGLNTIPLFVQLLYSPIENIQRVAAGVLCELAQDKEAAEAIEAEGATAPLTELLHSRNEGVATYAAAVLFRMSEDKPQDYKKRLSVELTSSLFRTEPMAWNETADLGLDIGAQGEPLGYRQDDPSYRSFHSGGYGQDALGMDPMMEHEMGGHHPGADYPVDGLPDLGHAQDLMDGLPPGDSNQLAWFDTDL


What was measured:
[1] = target: endogenous beta-catenin (HEK293 cells) (human) (UniProt P35222); test: cell-based or functional assay
[2] = target: T1, recombinant full-length human …; test: SPR (Biacore T100), biotinylated beta-catenin captured on streptavidin, VHH-scFc in solution
Protocol: SPR-Affinity measurements: Affinity measurements were performed using a Biacore™T100. Streptavidin was immobilised onto the carboxymethylated dextran coated gold surface of a CM5 sensor chip using amine coupling chemistry, as per manufacture's instructions. The concentrations of streptavidin used in flow cells 1˜4 respectively were 0 μg/mL, 5 μg/mL, 15 μg/mL, 45 μg/mL in 10 mM NaOAc pH5. Biotinylated beta-catenin was then captured on flow cells 2-4 whilst flow cell 1 was the control reference cell. Samples of VHH-scFc at 1 in 2, 1 in 5, 1 in 10, 1 in 20 and 1 in 40 dilutions in HBS-EP were passed over all flow cells for 5 minutes at 30 μL/minute. Buffer blanks were run between every sample set and control transfection supernatant samples were included in each run. Between each sample the chip was regenerated by the addition of 30 μL of 2M guanidine hydrochloride followed by 30 μL of 40 mM HCl. Affinity constants were determined by the fitting of resulting data using BiaEvalution software with a Langmuir 1:1 association method, associations were rejected if the Chi2 value was greater than 1; if the residual data points were not randomly distributed or if the residuals were greater than +/−2 RU. The association data were plotted for the most dilute samples which still gave a RU capture response of at least 40RU. A minimum of four different combinations of dilutions and different beta-catenin coated flow cells were used to calculate association ‘on-rate’ (ka) or dissociation data ‘off-rate’ (kd), and used to calculate KD=kd/ka.

[3] = target: T1, recombinant full-length human …; test: ELISA on captured biotinylated beta-catenin
[4] = target: T1, recombinant full-length human …; test: Western blot of reduced recombinant beta-catenin on PVDF, probed with IBV1.CDRAAA-scFc transient supernatant at 16 nM, detected with anti-mouse Fc HRP
Protocol: FIG. 5: Reducing anti-beta-catenin Western blots probed by the intrabodies. Gel A:) IBV1-scFc (23 nM), Gel B: IBV2-scFc (110 nM), Gel C: IBV3-scFc (85 nM) and Gel D: IBV1.CDRAAA-scFc (16 nM) transient supernatants. Any binding was detected with t anti-mouse Fc HRP antibody. In each gel, Lane 1) 15 ng beta-catenin, Lane 2) 7.5 ng beta-catenin, Lane 3) 3.75 ng beta-catenin.
The presence of beta-catenin was successfully detected by all three parent VHHs and not by the control mutant IBV1.CDRAAA.

[5] = target: T1, recombinant full-length human …; test: ELISA: biotinylated beta-catenin captured on streptavidin plates, VHH-scFc in half-log dilutions from 32 nM, anti-mouse Fc HRP, delta OD 630/490 nm [lower panel]
Protocol: FIG. 6: beta-catenin binding ELISA results for parent VHHs and CDR3 mutants. […] The plates were read at 630 and 490 nm and ΔOD recorded. The negative control is a ‘no DNA’ control transfection culture supernatant.
Beta-catenin binding ELISA: ELISA plates were coated with streptavidin ([…]). Biotinylated beta-catenin (1 mg/mL) was added in PBS, for 30 minutes. Blocked samples were added (phage samples or transient VHHscFc samples). After an hour, bound samples were detected using a suitable antibody at 1 in 5,000 dilution in PBS (containing 3% BSA). Detection antibodies were goat anti-M13-HRP (GE Healthcare) or goat anti-mouse Fc HRP (Jackson ImmunoResearch).
The binding of the parent intrabodies and CDR3 mutants to recombinant β-catenin was also tested by ELISA. […] IBV1.CDRAAA and IBS.CDRAAA also appeared to be suitable CDR3 mutant controls for their respective parent except for their lower expression levels within the bioassay. This is not uncommon in conventional antibody expression and single point mutations in antibody CDRs leading to over a 100-fold reduction in expression have been previously reported.

Row | firefly luciferase activity signal, PPSP-stimulated HEK293 TCF/LEF reporter bioassay (% of control VHH signal) [1] | Kd [2] [nM] | koff [2] [s⁻¹] | kon [2] [M⁻¹ s⁻¹] | Kd [3] [nM] | Binder | other results
1 | < 25 |  |  |  |  | intrabody V3 (VHH expressed intracellularly) (VHH, not shown: small tags and cut ends) VHH: QVQLVESGGGLVQPGGSLRLSCAASGTISSNNVMGWYRQGPGKQREFVASVTDSDLANYAASVKGRFTISRDNAKNTVNLQMNSLRPEDTGVYYCRLTIMTYPPTISWGQGTQVTVSS | 
2 |  | 4.38 | 0.000169 | 38500 | < 10 | IBV3-scFc (Fc fusion, not shown: a dimerising Fc or GST; large carriers; small tags and cut ends, Single chain mouse IgG Fc construct, used as transient HEK293 supernatant; also called VH-V3) VHH: QVQLVESGGGLVQPGGSLRLSCAASGTISSNNVMGWYRQGPGKQREFVASVTDSDLANYAASVKGRFTISRDNAKNTVNLQMNSLRPEDTGVYYCRLTIMTYPPTISWGQGTQVTVSS | 
3 | < 25 |  |  |  |  | intrabody O (VHH expressed intracellularly) (VHH, not shown: small tags and cut ends) VHH: QVQLVQSGGGLVQAGDSLRLACAASEGTFRTNVMGWFRQAPGKEREFVAAISWSGGITHYSNSVKGRFAISRDNAKNTVYLQMNSLKPEDTAVYYCAADPSTTPWNLRVRVNEYEYWGQGTQVTVSS | inhibition of beta-catenin co-transcriptional activity, HEK293 bioassay stimulated with LiCl2, against IBO.CDRAAA (1) [1]: 65%; inhibition of beta-catenin co-transcriptional activity, HEK293 bioassay stimulated with Wnt3a-conditioned media, against IBO.CDRAAA (1) [1]: 66%; percentage inhibition of firefly luciferase production in the bioassay, IBO against IBO.CDRAAA (1) [1]: 83%

The next lines start with the binder.

Row | Binder | firefly luciferase activity signal, PPSP-stimulated HEK293 TCF/LEF reporter bioassay (% of control VHH signal) [1] | Kd [2] [nM] | koff [2] [s⁻¹] | kon [2] [M⁻¹ s⁻¹] | Kd [3] [nM] | other results
4 | intrabody V1 (VHH expressed intracellularly) (VHH, not shown: small tags and cut ends) VHH: QVQLVQSGGGLVQPGGSLRLSCAASGSISSNNVMGWYRQGPGKQREFVASITDSDLANYAASVKGRFTISRDNAKNTVNLQMNSLRPEDTDVYYCRLTMMTYPPTISWGQGTQVTVSS | < 25 |  |  |  |  | 
5 | IBV1-scFc (Fc fusion, not shown: a dimerising Fc or GST; large carriers; small tags and cut ends, Single chain mouse IgG Fc construct, used as transient HEK293 supernatant; also called VH-V1; VHH-scFc of V1) VHH: QVQLVQSGGGLVQPGGSLRLSCAASGSISSNNVMGWYRQGPGKQREFVASITDSDLANYAASVKGRFTISRDNAKNTVNLQMNSLRPEDTDVYYCRLTMMTYPPTISWGQGTQVTVSS |  | 6.49 | 0.000163 | 25100 | < 10 | 
6 | intrabody V2 (VHH expressed intracellularly) (VHH, not shown: small tags and cut ends) VHH: QVQLVQSGGGLVQPGGSLRLSCAASGSISSNNVMGWYRQGPGKQREFVASITDSDLANYAASVKGRFTISRDNAKNTVNLQMNSLRPEDTDVYYCRLTMMTYPPIISWGQGTQVTVSS | < 25 |  |  |  |  | 
7 | IBV1.CDRAAA-scFc (Fc fusion, not shown: a dimerising Fc or GST; small tags and cut ends, CDR3 mutant control of V1 in the VHH-scFc format; also called VH-V1.CDRAAA) VHH: QVQLVQSGGGLVQPGGSLRLSCAASGSISSNNVMGWYRQGPGKQREFVASITDSDLANYAASVKGRFTISRDNAKNTVNLQMNSLRPEDTDVYYCRLTMMTAAATISWGQGTQVTVSS |  |  |  |  |  | binding result [4]: no binding (tested: 16 nM)
8 | IBV2-scFc (Fc fusion, not shown: a dimerising Fc or GST; large carriers; small tags and cut ends, Single chain mouse IgG Fc construct, used as transient HEK293 supernatant; also called VH-V2) VHH: QVQLVQSGGGLVQPGGSLRLSCAASGSISSNNVMGWYRQGPGKQREFVASITDSDLANYAASVKGRFTISRDNAKNTVNLQMNSLRPEDTDVYYCRLTMMTYPPIISWGQGTQVTVSS |  | 4.47 | 0.000165 | 36900 | < 10 | 
9 | intrabody S (VHH expressed intracellularly) (VHH, not shown: small tags and cut ends) VHH: QVQLVESGGGLVQAGGSLRLSCAASGVSFSRTSLGWFRQAPGKEREFVSVISWIGGTTYYADSLKGRFTISRDNAKSTVYLQMNSLKPEDTALYYCAISNGVLPRTEGAFASWGQGTQVTVSS | < 25 |  |  |  |  | 
10 | IBS-scFc (Fc fusion, not shown: a dimerising Fc or GST; large carriers; small tags and cut ends, Single chain mouse IgG Fc construct, used as transient HEK293 supernatant; also called VH-S) VHH: QVQLVESGGGLVQAGGSLRLSCAASGVSFSRTSLGWFRQAPGKEREFVSVISWIGGTTYYADSLKGRFTISRDNAKSTVYLQMNSLKPEDTALYYCAISNGVLPRTEGAFASWGQGTQVTVSS |  | 3.78 | 0.000248 | 65600 | < 10 | 
11 | IBS.CDRAAA-scFc (Fc fusion, not shown: a dimerising Fc or GST; small tags and cut ends, CDR3 mutant control of S in the VHH-scFc format; also called VH-S.CDRAAA) VHH: QVQLVQSGGGLVQAGGSLRLSCAASGVSFSRTSLGWFRQAPGKEREFVSVISWIGGTTYYADSLKGRFTISRDNAKSTVYLQMNSLKPEDTALYYCAISNGVLPATAGAAASWGQGTQVTVSS |  |  |  |  |  | binding result [5]: no binding (tested: 32 nM)
12 | IBO-scFc (Fc fusion, not shown: a dimerising Fc or GST; large carriers; small tags and cut ends, Single chain mouse IgG Fc construct; It is placed under this molecule; also called VH-O; biotinylated-'O') VHH: QVQLVQSGGGLVQAGDSLRLACAASEGTFRTNVMGWFRQAPGKEREFVAAISWSGGITHYSNSVKGRFAISRDNAKNTVYLQMNSLKPEDTAVYYCAADPSTTPWNLRVRVNEYEYWGQGTQVTVSS |  | 3.65 | 0.00026 | 71100 | < 10 | 
13 | IBO.CDRAAA (2)-scFc (Fc fusion, not shown: a dimerising Fc or GST; small tags and cut ends, CDR3 mutant of O in the VHH-scFc format; also called VH-O.CDRAAA(2)) VHH: QVQLVQSGGGLVQAGDSLRLACAASEGTFRTNVMGWFRQAPGKEREFVAAISWSGGITHYSNSVKGRFAISRDNAKNTVYLQMNSLKPEDTAVYYCAADPSTTPWNLAAAVNEYEYWGQGTQVTVSS |  |  |  |  |  | binding result [5]: binds
14 | IBO.CDRAAA (1)-scFc (Fc fusion, not shown: a dimerising Fc or GST; small tags and cut ends, CDR3 mutant control of O in the VHH-scFc format; also called VH-O.CDRAAA(1)) VHH: QVQLVQSGGGLVQAGDSLRLACAASEGTFRTNVMGWFRQAPGKEREFVAAISWSGGITHYSNSVKGRFAISRDNAKNTVYLQMNSLKPEDTAVYYCAADPSTTAAALRVRVNEYEYWGQGTQVTVSS |  |  |  |  |  | binding result [5]: no binding (tested: 32 nM)
